Laboratory results taken from patent US8663616B2, “Enzymatic peracid generation for use in oral care products” (E I du Pont de Nemours and Company, priority 2010, dated 2014).

Key:
[1] = Peracetic acid from C277S CXH fusions exposed to hydroxyapatite discs (Example 9); conditions: no enzyme control subtracted; for Peracetic acid (ppm) Exposed to Hydroxyapatite, Disc: disc-bound enzyme, 100 mM triacetin, 100 mM H2O2, 30 min, 37° C.; for Peracetic acid (ppm) Exposed to Hydroxyapatite, Supernatant: unbound enzyme in supernatant after 10 μM enzyme on disc
[2] = Peracetic acid generated in solution by C277S CXH fusions (Example 9); conditions: 0.5 μM enzyme, sarkosyl buffer, 100 mM triacetin, 100 mM H2O2, pH 7.2, 10 min, 37° C.

B1: EZ-19: C277S-EPEPE-link1-EPEPE-CXH201-H6, SEQ ID NO: 443 (protein)
chain: MAFFDLPLEELKKYRPERYEEKDFDEFWEETLAESEKFPLDPVFERMESHLKTVEAYDVTFSGYRGQRIKGWLLVPKLEEEKLPCVVQYIGYNGGRGFPHDWLFWPSMGYICFVMDTRGQGSGWLKGDTPDYPEGPVDPQYPGFMTRGILDPRTYYYRRVFTDAVRAVEAAASFPQVDQERIVIAGGSQGGGIALAVSALSKKAKALLCDVPFLCHFRRAVQLVDTHPYAEITNFLKTHRDKEEIVFRTLSYFDGVNFAARAKIPALFSVGLMDNISPPSTVFAAYNYYAGPKEIRIYPYNNHEGGGSFQAVEQVKFLKKLFEKGEPEPEGPGSGGAGSPGSAGGPGSEPEPEWKTKKILLSRTRRIMRQVVRSVMHKIWHHHHHH
[1]
  Peracetic acid (ppm) Exposed to Hydroxyapatite, Disc: 3136 ppm
  Peracetic acid (ppm) Exposed to Hydroxyapatite, Supernatant: 1665 ppm
[2]
  Peracetic acid (ppm) In Solution: 4088 ppm

B2: EZ-20: C277S-EPEPEPEPEPE-link1-CXH201-H6, SEQ ID NO: 444 (protein)
chain: MAFFDLPLEELKKYRPERYEEKDFDEFWEETLAESEKFPLDPVFERMESHLKTVEAYDVTFSGYRGQRIKGWLLVPKLEEEKLPCVVQYIGYNGGRGFPHDWLFWPSMGYICFVMDTRGQGSGWLKGDTPDYPEGPVDPQYPGFMTRGILDPRTYYYRRVFTDAVRAVEAAASFPQVDQERIVIAGGSQGGGIALAVSALSKKAKALLCDVPFLCHFRRAVQLVDTHPYAEITNFLKTHRDKEEIVFRTLSYFDGVNFAARAKIPALFSVGLMDNISPPSTVFAAYNYYAGPKEIRIYPYNNHEGGGSFQAVEQVKFLKKLFEKGEPEPEPEPEPEGPGSGGAGSPGSAGGPGSWKTKKILLSRTRRIMRQVVRSVMHKIWHHHHHH
[1]
  Peracetic acid (ppm) Exposed to Hydroxyapatite, Disc: 2795 ppm
  Peracetic acid (ppm) Exposed to Hydroxyapatite, Supernatant: 1229 ppm
[2]
  Peracetic acid (ppm) In Solution: 2265 ppm

B3: EZ-21: C277S-EPEPE-link1-EPEPE-CXHG2-H6, SEQ ID NO: 445 (protein)
chain: MAFFDLPLEELKKYRPERYEEKDFDEFWEETLAESEKFPLDPVFERMESHLKTVEAYDVTFSGYRGQRIKGWLLVPKLEEEKLPCVVQYIGYNGGRGFPHDWLFWPSMGYICFVMDTRGQGSGWLKGDTPDYPEGPVDPQYPGFMTRGILDPRTYYYRRVFTDAVRAVEAAASFPQVDQERIVIAGGSQGGGIALAVSALSKKAKALLCDVPFLCHFRRAVQLVDTHPYAEITNFLKTHRDKEEIVFRTLSYFDGVNFAARAKIPALFSVGLMDNISPPSTVFAAYNYYAGPKEIRIYPYNNHEGGGSFQAVEQVKFLKKLFEKGEPEPEGPGSGGAGSPGSAGGPGSEPEPEPLWRRITKRKLVRPVATLMWYWFTSKRHHHHHH
[1]
  Peracetic acid (ppm) Exposed to Hydroxyapatite, Disc: 3109 ppm
  Peracetic acid (ppm) Exposed to Hydroxyapatite, Supernatant: 1581 ppm
[2]
  Peracetic acid (ppm) In Solution: 2764 ppm

B4: EZ-22: C277S-EPEPEPEPEPE-Link1-CXHG2-H6, SEQ ID NO: 446 (protein)
chain: MAFFDLPLEELKKYRPERYEEKDFDEFWEETLAESEKFPLDPVFERMESHLKTVEAYDVTFSGYRGQRIKGWLLVPKLEEEKLPCVVQYIGYNGGRGFPHDWLFWPSMGYICFVMDTRGQGSGWLKGDTPDYPEGPVDPQYPGFMTRGILDPRTYYYRRVFTDAVRAVEAAASFPQVDQERIVIAGGSQGGGIALAVSALSKKAKALLCDVPFLCHFRRAVQLVDTHPYAEITNFLKTHRDKEEIVFRTLSYFDGVNFAARAKIPALFSVGLMDNISPPSTVFAAYNYYAGPKEIRIYPYNNHEGGGSFQAVEQVKFLKKLFEKGEPEPEPEPEPEGPGSGGAGSPGSAGGPGSPLWRRITKRKLVRPVATLMWYWFTSKRHHHHHH
[1]
  Peracetic acid (ppm) Exposed to Hydroxyapatite, Disc: 2495 ppm
  Peracetic acid (ppm) Exposed to Hydroxyapatite, Supernatant: 477 ppm
[2]
  Peracetic acid (ppm) In Solution: 2305 ppm

B5: EZ-23: C277S-EPEPE-Link1-EPEPE-CXH104-H6, SEQ ID NO: 447 (protein)
chain: MAFFDLPLEELKKYRPERYEEKDFDEFWEETLAESEKFPLDPVFERMESHLKTVEAYDVTFSGYRGQRIKGWLLVPKLEEEKLPCVVQYIGYNGGRGFPHDWLFWPSMGYICFVMDTRGQGSGWLKGDTPDYPEGPVDPQYPGFMTRGILDPRTYYYRRVFTDAVRAVEAAASFPQVDQERIVIAGGSQGGGIALAVSALSKKAKALLCDVPFLCHFRRAVQLVDTHPYAEITNFLKTHRDKEEIVFRTLSYFDGVNFAARAKIPALFSVGLMDNISPPSTVFAAYNYYAGPKEIRIYPYNNHEGGGSFQAVEQVKFLKKLFEKGEPEGPGSGGAGSPGSAGGPGSEPERMLSRILRMFVRILKRERLSQVRGLFVHHHHHH
[1]
  Peracetic acid (ppm) Exposed to Hydroxyapatite, Disc: 4463 ppm
  Peracetic acid (ppm) Exposed to Hydroxyapatite, Supernatant: 1712 ppm
[2]
  Peracetic acid (ppm) In Solution: 2212 ppm

B6: EZ-24: C277S-…-Link1-CXH104-H6, SEQ ID NO: 448 (protein)
chain: MAFFDLPLEELKKYRPERYEEKDFDEFWEETLAESEKFPLDPVFERMESHLKTVEAYDVTFSGYRGQRIKGWLLVPKLEEEKLPCVVQYIGYNGGRGFPHDWLFWPSMGYICFVMDTRGQGSGWLKGDTPDYPEGPVDPQYPGFMTRGILDPRTYYYRRVFTDAVRAVEAAASFPQVDQERIVIAGGSQGGGIALAVSALSKKAKALLCDVPFLCHFRRAVQLVDTHPYAEITNFLKTHRDKEEIVFRTLSYFDGVNFAARAKIPALFSVGLMDNISPPSTVFAAYNYYAGPKEIRIYPYNNHEGGGSFQAVEQVKFLKKLFEKGEPEPEPEGPGSGGAGSPGSAGGPGSRMLSRILRMFVRILKRERLSQVRGLFVHHHHHH
[1]
  Peracetic acid (ppm) Exposed to Hydroxyapatite, Disc: 3453 ppm
  Peracetic acid (ppm) Exposed to Hydroxyapatite, Supernatant: 719 ppm
[2]
  Peracetic acid (ppm) In Solution: 2951 ppm

B7: EZ-25: C277S-EPEPE-Link1-EPEPE-CXHG102-H6, SEQ ID NO: 449 (protein)
chain: MAFFDLPLEELKKYRPERYEEKDFDEFWEETLAESEKFPLDPVFERMESHLKTVEAYDVTFSGYRGQRIKGWLLVPKLEEEKLPCVVQYIGYNGGRGFPHDWLFWPSMGYICFVMDTRGQGSGWLKGDTPDYPEGPVDPQYPGFMTRGILDPRTYYYRRVFTDAVRAVEAAASFPQVDQERIVIAGGSQGGGIALAVSALSKKAKALLCDVPFLCHFRRAVQLVDTHPYAEITNFLKTHRDKEEIVFRTLSYFDGVNFAARAKIPALFSVGLMDNISPPSTVFAAYNYYAGPKEIRIYPYNNHEGGGSFQAVEQVKFLKKLFEKGEPEPEPEGPGSGGAGSPGSAGGPGSEPEPEPELRFLARRFLKLRRARKWWNAWKVWVTRHHHHHH
[1]
  Peracetic acid (ppm) Exposed to Hydroxyapatite, Disc: 1791 ppm
  Peracetic acid (ppm) Exposed to Hydroxyapatite, Supernatant: 1029 ppm
[2]
  Peracetic acid (ppm) In Solution: 1703 ppm

B8: EZ-26: C277S-EPEPEPEPEPE-Link1-CXHG102-H6, SEQ ID NO: 450 (protein)
chain: MAFFDLPLEELKKYRPERYEEKDFDEFWEETLAESEKFPLDPVFERMESHLKTVEAYDVTFSGYRGQRIKGWLLVPKLEEEKLPCVVQYIGYNGGRGFPHDWLFWPSMGYICFVMDTRGQGSGWLKGDTPDYPEGPVDPQYPGFMTRGILDPRTYYYRRVFTDAVRAVEAAASFPQVDQERIVIAGGSQGGGIALAVSALSKKAKALLCDVPFLCHFRRAVQLVDTHPYAEITNFLKTHRDKEEIVFRTLSYFDGVNFAARAKIPALFSVGLMDNISPPSTVFAAYNYYAGPKEIRIYPYNNHEGGGSFQAVEQVKFLKKLFEKGEPEPEPEPEPEPEPEGPGSGGAGSPGSAGGPGSLRFLARRFLKLRRARKWWNAWKVWVTRHHHHHH
[1]
  Peracetic acid (ppm) Exposed to Hydroxyapatite, Disc: 1849 ppm
  Peracetic acid (ppm) Exposed to Hydroxyapatite, Supernatant: 1636 ppm
[2]
  Peracetic acid (ppm) In Solution: 2273 ppm
